Laboratory results reported in the supplement of paper PMC10065799, “High-throughput profiling of sequence recognition by tyrosine kinases and SH2 domains using bacterial peptide display” (eLife, 2023).

Target: FGFR3 (UniProt P22607)
Assay: phosphorylation enrichment, bacterial display (enrichment ratio); higher = better substrate or ligand; peptides without Tyr show the background
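Also: 11-residue human phosphosite peptides and single-mutation variants displayed on the E. coli surface, counted by deep sequencing, each peptide's frequency after selection divided by its frequency in the unselected input library; frequency after pTyr selection over input frequency; kinase dosed for 20-30% of maximal phosphorylation in three min.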

FGFR3, sequence (P22607 whole entry, looked up): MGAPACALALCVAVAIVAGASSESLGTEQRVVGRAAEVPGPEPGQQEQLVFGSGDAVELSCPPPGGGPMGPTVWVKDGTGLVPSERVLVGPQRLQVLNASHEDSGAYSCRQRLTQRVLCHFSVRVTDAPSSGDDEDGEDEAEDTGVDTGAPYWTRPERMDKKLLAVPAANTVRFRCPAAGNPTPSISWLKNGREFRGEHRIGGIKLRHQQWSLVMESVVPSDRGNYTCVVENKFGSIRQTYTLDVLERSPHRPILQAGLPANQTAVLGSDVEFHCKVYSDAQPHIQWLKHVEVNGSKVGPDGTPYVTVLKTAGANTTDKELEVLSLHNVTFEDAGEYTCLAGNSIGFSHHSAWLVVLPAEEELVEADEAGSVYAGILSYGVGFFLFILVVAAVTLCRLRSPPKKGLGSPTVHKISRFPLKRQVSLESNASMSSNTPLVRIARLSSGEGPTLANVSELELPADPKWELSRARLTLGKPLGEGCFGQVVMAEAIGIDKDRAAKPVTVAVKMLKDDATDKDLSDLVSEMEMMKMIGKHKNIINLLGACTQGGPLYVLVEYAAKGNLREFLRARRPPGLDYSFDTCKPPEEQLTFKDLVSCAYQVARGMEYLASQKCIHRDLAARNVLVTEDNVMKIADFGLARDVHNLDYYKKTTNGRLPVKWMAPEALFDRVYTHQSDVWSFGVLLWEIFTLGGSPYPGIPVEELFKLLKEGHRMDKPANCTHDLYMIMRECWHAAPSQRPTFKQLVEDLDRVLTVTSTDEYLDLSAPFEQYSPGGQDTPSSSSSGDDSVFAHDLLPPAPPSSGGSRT

Point of comparison: LECEWYKNGVK [TTN_Y2112_P2107L], phosphorylation enrichment 1.01. Against it:
- ARKCKYFKKHE [NFIX_Y40_R38C] — lower, 0.565
- PDGREYIFVDP [PDGFRA_Y572_H570R_YF] — higher, 1.2
- LHRHAYPEQQQ [DPPA2_Y127_R131Q] — lower, 0.828
- QRMGTYGVRAA [ICAM2_Y260] — lower, 0.702
- RGYRVCYTPDS [PTPRF_Y450_Y450C] — higher, 1.36
- KIDAKYKKKIK [WDR19_Y1230_E1235K] — lower, 0.834
- SRWKLYPRMLR [HAO1_Y50] — lower, 0.482
- TNEFEYDELIV [TGM1_Y136_D132N_YF] — lower, 0.887
- KLQKKYGPISS [CYP17A1_Y60_Y64S] — lower, 0.493
- IQTDGDRAPEA [UHMK1_Y197_Y197D] — lower, 0.88
- CRAVKYLQMVD [AVPR2_Y117_G122D] — lower, 0.585
- REGDKYVSHGA [ASS1_Y113_A111D] — lower, 0.58
- AVRVFYRKCPH [EPHB2_Y194_R199H] — lower, 0.668
- SILAVYSKDNF [PANK2_Y400_YF] — lower, 0.709
- SQINLYQDVML [ZNF806_Y33_A28S] — higher, 1.06
- GIADDYDKKKP [EIF1_Y54_L59P] — lower, 0.636
- VERRVYAEDPY [PCCA_Y401_C398R] — lower, 0.664
- MSSLPYMKVIF [SLC4A11_Y853_M856V] — lower, 0.592
- EKLQKYFRKNP [EHHADH_Y682_Q685K_YF] — lower, 0.553
- PTTKSYFPHFD [HBA1_Y43_T42S] — lower, 0.77
- HNLDFYKQTTN [FGFR3_Y648_K650Q_YF] — lower, 0.631
- LGLDEYLDKLK [FMNL2_Y352] — lower, 0.971
- IDNKMYDPKMN [ENPP1_Y280] — lower, 0.471
- LRGVIYVILRK [PMP22_Y153_S149R] — lower, 0.833
- QEGPEYWDGET [HLA-A_Y83_Q86G] — higher, 1.25
- YRQNVYIPGSN [PCDHGA1_Y895] — lower, 0.519
- DSLASYLDKVR [KRT10_Y160_R156S] — lower, 0.558
- NTVDYYDLYGG [PTPN11_Y63_G60V] — higher, 13.1
- KKFFSYAWPFF [BRDT_Y291_H288Y_YF] — lower, 0.716
- RCFVFYFSFLL [PTEN_Y177_R173C_YF] — lower, 0.613
- NGTVTYAIVAG [CDH23_Y1672] — lower, 0.714
- LRYDSYWSYCN [SLC20A2_Y433_S434W] — higher, 3.72

Tested on: Fer (mouse)
Assay: as above

Point of comparison: LGLDEYLDKLK [FMNL2_Y352], phosphorylation enrichment 0.933. Against it:
- ARKCKYFKKHE [NFIX_Y40_R38C] — lower, 0.443
- PDGREYIFVDP [PDGFRA_Y572_H570R_YF] — lower, 0.615
- LHRHAYPEQQQ [DPPA2_Y127_R131Q] — lower, 0.743
- QRMGTYGVRAA [ICAM2_Y260] — lower, 0.852
- RGYRVCYTPDS [PTPRF_Y450_Y450C] — lower, 0.71
- KIDAKYKKKIK [WDR19_Y1230_E1235K] — lower, 0.447
- SRWKLYPRMLR [HAO1_Y50] — lower, 0.341
- TNEFEYDELIV [TGM1_Y136_D132N_YF] — lower, 0.709
- KLQKKYGPISS [CYP17A1_Y60_Y64S] — lower, 0.289
- IQTDGDRAPEA [UHMK1_Y197_Y197D] — lower, 0.595
- LECEWYKNGVK [TTN_Y2112_P2107L] — lower, 0.771
- CRAVKYLQMVD [AVPR2_Y117_G122D] — lower, 0.419
- REGDKYVSHGA [ASS1_Y113_A111D] — lower, 0.486
- AVRVFYRKCPH [EPHB2_Y194_R199H] — lower, 0.452
- SILAVYSKDNF [PANK2_Y400_YF] — lower, 0.438
- SQINLYQDVML [ZNF806_Y33_A28S] — higher, 13.9
- GIADDYDKKKP [EIF1_Y54_L59P] — lower, 0.389
- VERRVYAEDPY [PCCA_Y401_C398R] — lower, 0.424
- MSSLPYMKVIF [SLC4A11_Y853_M856V] — higher, 1.01
- EKLQKYFRKNP [EHHADH_Y682_Q685K_YF] — lower, 0.514
- PTTKSYFPHFD [HBA1_Y43_T42S] — lower, 0.497
- HNLDFYKQTTN [FGFR3_Y648_K650Q_YF] — lower, 0.409
- IDNKMYDPKMN [ENPP1_Y280] — lower, 0.355
- LRGVIYVILRK [PMP22_Y153_S149R] — lower, 0.577
- QEGPEYWDGET [HLA-A_Y83_Q86G] — lower, 0.788
- YRQNVYIPGSN [PCDHGA1_Y895] — lower, 0.405
- DSLASYLDKVR [KRT10_Y160_R156S] — lower, 0.416
- NTVDYYDLYGG [PTPN11_Y63_G60V] — higher, 1.19
- KKFFSYAWPFF [BRDT_Y291_H288Y_YF] — lower, 0.488
- RCFVFYFSFLL [PTEN_Y177_R173C_YF] — lower, 0.432
- NGTVTYAIVAG [CDH23_Y1672] — lower, 0.471
- LRYDSYWSYCN [SLC20A2_Y433_S434W] — higher, 1.51

Target: Fes (UniProt P07332)
Assay: as above

Fes, sequence (P07332 whole entry, looked up): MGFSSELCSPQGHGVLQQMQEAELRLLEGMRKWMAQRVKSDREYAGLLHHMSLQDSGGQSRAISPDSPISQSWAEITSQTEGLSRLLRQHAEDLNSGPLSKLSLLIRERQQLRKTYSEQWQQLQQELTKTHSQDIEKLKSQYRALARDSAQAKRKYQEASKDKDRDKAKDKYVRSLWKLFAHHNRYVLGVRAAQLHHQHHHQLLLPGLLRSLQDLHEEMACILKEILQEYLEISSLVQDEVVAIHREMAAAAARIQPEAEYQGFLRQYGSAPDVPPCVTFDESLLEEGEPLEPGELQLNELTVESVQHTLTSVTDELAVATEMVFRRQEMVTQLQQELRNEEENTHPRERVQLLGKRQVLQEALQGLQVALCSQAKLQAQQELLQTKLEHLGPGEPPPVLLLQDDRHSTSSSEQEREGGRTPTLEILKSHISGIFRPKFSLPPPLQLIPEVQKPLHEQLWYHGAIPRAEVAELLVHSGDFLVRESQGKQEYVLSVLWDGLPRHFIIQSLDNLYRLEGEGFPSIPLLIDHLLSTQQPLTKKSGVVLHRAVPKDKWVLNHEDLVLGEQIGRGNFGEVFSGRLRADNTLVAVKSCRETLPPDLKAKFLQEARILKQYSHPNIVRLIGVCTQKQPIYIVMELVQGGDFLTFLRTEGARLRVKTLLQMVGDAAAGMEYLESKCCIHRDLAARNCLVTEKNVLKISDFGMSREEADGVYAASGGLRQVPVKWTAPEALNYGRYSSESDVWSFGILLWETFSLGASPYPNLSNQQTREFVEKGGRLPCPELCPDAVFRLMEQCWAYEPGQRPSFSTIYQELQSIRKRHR

Point of comparison: PTTKSYFPHFD [HBA1_Y43_T42S], phosphorylation enrichment 1.42. Against it:
- ARKCKYFKKHE [NFIX_Y40_R38C] — lower, 0.974
- PDGREYIFVDP [PDGFRA_Y572_H570R_YF] — lower, 1.08
- LHRHAYPEQQQ [DPPA2_Y127_R131Q] — lower, 0.901
- QRMGTYGVRAA [ICAM2_Y260] — lower, 1.14
- RGYRVCYTPDS [PTPRF_Y450_Y450C] — higher, 1.61
- KIDAKYKKKIK [WDR19_Y1230_E1235K] — lower, 0.809
- SRWKLYPRMLR [HAO1_Y50] — lower, 0.619
- TNEFEYDELIV [TGM1_Y136_D132N_YF] — higher, 1.61
- KLQKKYGPISS [CYP17A1_Y60_Y64S] — lower, 0.553
- IQTDGDRAPEA [UHMK1_Y197_Y197D] — lower, 1.35
- LECEWYKNGVK [TTN_Y2112_P2107L] — higher, 2.16
- CRAVKYLQMVD [AVPR2_Y117_G122D] — lower, 0.922
- REGDKYVSHGA [ASS1_Y113_A111D] — lower, 1.03
- AVRVFYRKCPH [EPHB2_Y194_R199H] — lower, 1.08
- SILAVYSKDNF [PANK2_Y400_YF] — higher, 1.69
- SQINLYQDVML [ZNF806_Y33_A28S] — higher, 2.48
- GIADDYDKKKP [EIF1_Y54_L59P] — lower, 0.998
- VERRVYAEDPY [PCCA_Y401_C398R] — lower, 0.962
- MSSLPYMKVIF [SLC4A11_Y853_M856V] — lower, 0.84
- EKLQKYFRKNP [EHHADH_Y682_Q685K_YF] — lower, 0.895
- HNLDFYKQTTN [FGFR3_Y648_K650Q_YF] — lower, 1.35
- LGLDEYLDKLK [FMNL2_Y352] — lower, 1.27
- IDNKMYDPKMN [ENPP1_Y280] — lower, 0.729
- LRGVIYVILRK [PMP22_Y153_S149R] — lower, 1.09
- QEGPEYWDGET [HLA-A_Y83_Q86G] — higher, 1.71
- YRQNVYIPGSN [PCDHGA1_Y895] — lower, 0.626
- DSLASYLDKVR [KRT10_Y160_R156S] — lower, 0.78
- NTVDYYDLYGG [PTPN11_Y63_G60V] — lower, 1.21
- KKFFSYAWPFF [BRDT_Y291_H288Y_YF] — lower, 0.991
- RCFVFYFSFLL [PTEN_Y177_R173C_YF] — lower, 0.626
- NGTVTYAIVAG [CDH23_Y1672] — lower, 0.992
- LRYDSYWSYCN [SLC20A2_Y433_S434W] — higher, 1.53

Target: Fyn (UniProt P06241)
Assay: as above

Fyn, sequence (P06241 whole entry, looked up): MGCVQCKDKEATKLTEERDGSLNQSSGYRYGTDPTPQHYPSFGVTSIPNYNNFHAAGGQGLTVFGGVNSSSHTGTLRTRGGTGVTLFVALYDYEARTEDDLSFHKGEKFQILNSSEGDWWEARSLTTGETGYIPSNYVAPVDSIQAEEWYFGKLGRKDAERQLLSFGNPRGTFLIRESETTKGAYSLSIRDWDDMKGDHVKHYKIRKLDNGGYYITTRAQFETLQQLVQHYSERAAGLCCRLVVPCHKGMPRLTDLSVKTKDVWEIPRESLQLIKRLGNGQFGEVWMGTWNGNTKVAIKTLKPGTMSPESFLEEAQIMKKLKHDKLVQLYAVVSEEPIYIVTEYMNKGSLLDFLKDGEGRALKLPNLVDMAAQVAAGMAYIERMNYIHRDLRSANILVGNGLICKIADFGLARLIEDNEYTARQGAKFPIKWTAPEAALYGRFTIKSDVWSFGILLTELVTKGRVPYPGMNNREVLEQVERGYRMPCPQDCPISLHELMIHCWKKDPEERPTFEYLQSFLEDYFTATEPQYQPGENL

Point of comparison: SRWKLYPRMLR [HAO1_Y50], phosphorylation enrichment 0.405. Against it:
- ARKCKYFKKHE [NFIX_Y40_R38C] — higher, 0.463
- PDGREYIFVDP [PDGFRA_Y572_H570R_YF] — higher, 0.649
- LHRHAYPEQQQ [DPPA2_Y127_R131Q] — higher, 0.824
- QRMGTYGVRAA [ICAM2_Y260] — higher, 2.06
- RGYRVCYTPDS [PTPRF_Y450_Y450C] — higher, 0.602
- KIDAKYKKKIK [WDR19_Y1230_E1235K] — lower, 0.305
- TNEFEYDELIV [TGM1_Y136_D132N_YF] — higher, 0.475
- KLQKKYGPISS [CYP17A1_Y60_Y64S] — lower, 0.343
- IQTDGDRAPEA [UHMK1_Y197_Y197D] — higher, 0.466
- LECEWYKNGVK [TTN_Y2112_P2107L] — higher, 0.619
- CRAVKYLQMVD [AVPR2_Y117_G122D] — higher, 0.503
- REGDKYVSHGA [ASS1_Y113_A111D] — higher, 0.505
- AVRVFYRKCPH [EPHB2_Y194_R199H] — higher, 0.496
- SILAVYSKDNF [PANK2_Y400_YF] — higher, 0.862
- SQINLYQDVML [ZNF806_Y33_A28S] — higher, 0.965
- GIADDYDKKKP [EIF1_Y54_L59P] — higher, 0.418
- VERRVYAEDPY [PCCA_Y401_C398R] — higher, 0.764
- MSSLPYMKVIF [SLC4A11_Y853_M856V] — higher, 0.507
- EKLQKYFRKNP [EHHADH_Y682_Q685K_YF] — higher, 0.527
- PTTKSYFPHFD [HBA1_Y43_T42S] — higher, 0.431
- HNLDFYKQTTN [FGFR3_Y648_K650Q_YF] — lower, 0.368
- LGLDEYLDKLK [FMNL2_Y352] — lower, 0.394
- IDNKMYDPKMN [ENPP1_Y280] — lower, 0.404
- LRGVIYVILRK [PMP22_Y153_S149R] — higher, 0.65
- QEGPEYWDGET [HLA-A_Y83_Q86G] — higher, 0.712
- YRQNVYIPGSN [PCDHGA1_Y895] — higher, 0.435
- DSLASYLDKVR [KRT10_Y160_R156S] — higher, 0.448
- NTVDYYDLYGG [PTPN11_Y63_G60V] — higher, 6.7
- KKFFSYAWPFF [BRDT_Y291_H288Y_YF] — higher, 0.555
- RCFVFYFSFLL [PTEN_Y177_R173C_YF] — lower, 0.355
- NGTVTYAIVAG [CDH23_Y1672] — higher, 0.904
- LRYDSYWSYCN [SLC20A2_Y433_S434W] — higher, 5.26
